Test results reported in patent US20050221426A1.
One block for each molecule: values may come before it.

Experiments:
Assay in all cases: cell-based or functional assay
GLP1R = GLP1R (UniProt P43220)
[1] = target: Vasoactive Intestinal Peptide 1 receptor (UniProt P32241)
Melanocortin 5 receptor = Melanocortin 5 receptor (UniProt P33032)
Melanocortin 1 receptor = Melanocortin 1 receptor (UniProt Q01726)
CRHR1 = CRHR1 (UniProt P34998)
Sequence of CRHR1 (P34998 24-415 limits assumed): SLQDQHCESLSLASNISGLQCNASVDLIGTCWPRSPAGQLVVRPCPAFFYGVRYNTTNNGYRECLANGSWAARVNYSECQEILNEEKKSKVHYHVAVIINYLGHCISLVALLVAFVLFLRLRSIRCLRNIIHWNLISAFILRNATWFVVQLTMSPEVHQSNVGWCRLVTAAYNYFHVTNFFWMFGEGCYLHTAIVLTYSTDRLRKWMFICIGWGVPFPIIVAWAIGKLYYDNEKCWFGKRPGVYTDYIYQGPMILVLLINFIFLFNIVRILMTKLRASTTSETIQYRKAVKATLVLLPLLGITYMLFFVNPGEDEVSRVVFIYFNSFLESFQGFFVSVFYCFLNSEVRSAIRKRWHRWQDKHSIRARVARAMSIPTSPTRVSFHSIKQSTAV

Sequence of Vasoactive Intestinal Peptide 1 receptor (P32241 31-457): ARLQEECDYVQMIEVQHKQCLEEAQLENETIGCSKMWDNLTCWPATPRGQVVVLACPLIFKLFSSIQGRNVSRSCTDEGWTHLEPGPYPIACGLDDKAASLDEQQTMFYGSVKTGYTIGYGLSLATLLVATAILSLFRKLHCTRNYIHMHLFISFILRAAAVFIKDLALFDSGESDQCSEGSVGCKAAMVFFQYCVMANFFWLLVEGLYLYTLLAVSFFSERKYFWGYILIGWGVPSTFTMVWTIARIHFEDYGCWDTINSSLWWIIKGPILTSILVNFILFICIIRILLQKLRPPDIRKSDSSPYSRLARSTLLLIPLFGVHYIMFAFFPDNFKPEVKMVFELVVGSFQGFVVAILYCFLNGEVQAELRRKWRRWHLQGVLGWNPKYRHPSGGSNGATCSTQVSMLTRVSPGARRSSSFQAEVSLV
Sequence of Melanocortin 5 receptor (P33032 whole entry): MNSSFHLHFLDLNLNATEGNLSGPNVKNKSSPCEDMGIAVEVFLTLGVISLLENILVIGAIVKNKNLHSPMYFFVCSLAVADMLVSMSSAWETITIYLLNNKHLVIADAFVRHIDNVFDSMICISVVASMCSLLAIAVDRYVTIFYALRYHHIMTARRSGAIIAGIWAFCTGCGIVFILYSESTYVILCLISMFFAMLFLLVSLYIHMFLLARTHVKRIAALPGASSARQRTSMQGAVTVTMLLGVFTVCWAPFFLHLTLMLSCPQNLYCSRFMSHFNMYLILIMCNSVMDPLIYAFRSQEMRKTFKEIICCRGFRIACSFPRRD
Sequence of Melanocortin 1 receptor (Q01726 whole entry): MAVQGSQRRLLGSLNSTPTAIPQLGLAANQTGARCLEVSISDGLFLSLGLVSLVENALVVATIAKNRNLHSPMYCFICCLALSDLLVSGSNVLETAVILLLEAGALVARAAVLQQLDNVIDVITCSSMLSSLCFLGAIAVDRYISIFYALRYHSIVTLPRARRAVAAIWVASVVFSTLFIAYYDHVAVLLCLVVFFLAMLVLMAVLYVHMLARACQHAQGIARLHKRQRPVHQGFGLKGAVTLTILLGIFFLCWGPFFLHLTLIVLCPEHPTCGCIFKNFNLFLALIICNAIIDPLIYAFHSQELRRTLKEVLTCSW
Sequence of GLP1R (P43220 24-463 limits assumed): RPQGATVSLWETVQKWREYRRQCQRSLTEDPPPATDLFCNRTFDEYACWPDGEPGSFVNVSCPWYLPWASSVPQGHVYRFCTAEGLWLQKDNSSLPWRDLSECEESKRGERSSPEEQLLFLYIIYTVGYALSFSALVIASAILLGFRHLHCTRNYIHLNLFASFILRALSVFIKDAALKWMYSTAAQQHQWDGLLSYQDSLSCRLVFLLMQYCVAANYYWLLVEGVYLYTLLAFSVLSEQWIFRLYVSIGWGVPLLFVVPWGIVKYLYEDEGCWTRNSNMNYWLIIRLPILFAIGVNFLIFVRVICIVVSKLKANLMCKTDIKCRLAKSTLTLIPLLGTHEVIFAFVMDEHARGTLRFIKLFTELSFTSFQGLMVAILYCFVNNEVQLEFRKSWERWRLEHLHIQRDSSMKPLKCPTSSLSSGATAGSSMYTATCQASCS

Molecule: GLP (peptide)
EC50 of cell response (CNG channel voltage dye assay; NY & H30602) (GLP1R): 0.003 nM

Molecule: α-MSH (from UniProt P01189 138-150) (peptide)
EC50 of cell response (CNG channel voltage dye assay; MDC dye) (Melanocortin 1 receptor): 820 nM | EC50 of cell response (CNG channel voltage dye assay; TB & H30602) (Melanocortin 1 receptor): 770 nM | Fmax/Fb maximal response (CNG channel voltage dye assay; MDC dye) (Melanocortin 1 receptor): 5 | Fmax/Fb maximal response (CNG channel voltage dye assay; TB & H30602) (Melanocortin 1 receptor): 5.1

B1: CRF (peptide, UniProt P06850 154-194, looked up)
peptide: SEEPPISLDLTFHLLREVLEMARAEQLAQQAHSNRKLMEII
EC50 of cell response (CNG channel voltage dye assay; MDC dye) (CRHR1): 0.028 nM | EC50 of cell response (CNG channel voltage dye assay; NY & H30602) (CRHR1): 0.028 nM | Fmax/Fb maximal response (CNG channel voltage dye assay; MDC dye) (CRHR1): 4.2 | Fmax/Fb maximal response (CNG channel voltage dye assay; NY & H30602) (CRHR1): 4.3

The remaining lines, values ahead:

EC50 of cell response (CNG channel voltage dye assay; MDC dye) [1]: 0.0024 nM | EC50 of cell response (CNG channel voltage dye assay; TB & H30602) [1]: 0.005 nM | Fmax/Fb maximal response (CNG channel voltage dye assay; MDC dye) [1]: 4.9 | Fmax/Fb maximal response (CNG channel voltage dye assay; TB & H30602) [1]: 5
Molecule: VIP (from UniProt P01282 125-152) (peptide)

EC50 of cell response (CNG channel voltage dye assay; MDC dye) (Melanocortin 5 receptor): 0.0029 nM | EC50 of cell response (CNG channel voltage dye assay; NR & H30602) (Melanocortin 5 receptor): 0.0013 nM | EC50 of cell response (CNG channel voltage dye assay; NY & H30602) (Melanocortin 5 receptor): 950 nM | Fmax/Fb maximal response (CNG channel voltage dye assay; MDC dye) (Melanocortin 5 receptor): 3.6 | Fmax/Fb maximal response (CNG channel voltage dye assay; NR & H30602) (Melanocortin 5 receptor): 3.2 | Fmax/Fb maximal response (CNG channel voltage dye assay; NY & H30602) (Melanocortin 5 receptor): 3.4
Molecule: [Nle4-D-Phe7]α-MSH (from UniProt P01189 138-150) (peptide)
